Measurements reported in patent publication US20240390508A1 (Takeda / Millennium, published 2024).

Target: T1, human transferrin receptor (hTfR) (human, UniProt P02786 89-760, limits assumed)
T1 construct: 0.5 uM hTfR solution immobilised on a Ni-NTA chip with EDC/NHS; source and construct are not described; also called human TfR
Test: SPR, hTfR immobilised on NTA chip, single cycle kinetics; A = KD less than 100 nM
Protocol: The various synthesized peptide-nucleic acid conjugates were tested for intermolecular interaction by surface plasmon resonance (SPR) of the peptide-nucleic acid conjugate with transferrin receptor (hTfR) using the method shown below. The specific test method is shown below.
NTA sensor chip (Global Life Science Technologies Japan Co., Ltd.) was inserted into Biacore T200 (Global Life Science Technologies Japan Co., Ltd.), prime operation was performed three times with running buffer: 10 mM HEPES pH 8.0 (Nacalai Tesque Co., Ltd.), 150 mM NaCl (Nacalai Tesque Co., Ltd.), 0.05% Tween 20 (Nacalai Tesque Co., Ltd.), 0.1% BSA (SIGMA-ALDRICH), and 1.0% DMSO (FUJIFILM Wako Pure Chemical Corporation), and equilibrated at a flow rate of 30 μL/min. 350 mM EDTA solution was reacted for 60 seconds at a flow rate of 10 μL/min, 0.5 mM NiCl₂ solution (Kishida Chemical) was reacted for 60 seconds at a flow rate of 10 μL/min, and the NTA sensor chip was washed with 3 mM EDTA solution (Nacalai Tesque Co., Ltd.) for 60 seconds at a flow rate of 10 μL/min. After mixing 50 μL each of 60 mM EDC solution (Global Life Science Technologies Japan Co., Ltd.) and 650 mM NHS solution (Global Life Science Technologies Japan Co., Ltd.), the mixture was reacted for 420 seconds at a flow rate of 10 μL/min. 150 μL of a 0.5 μM hTfR solution was prepared by diluting with a running buffer and reacted for 300 seconds at a flow rate of 10 μL/min to immobilize hTfR on the NTA sensor chip. After immobilization, capping was performed by reacting with a 1.0 M ethanolamine aqueous solution (Global Life Science Technologies Japan Co., Ltd.) at a flow rate of 10 μL/min for 420 seconds. A peptide-nucleic acid conjugate solution adjusted to 10 mM in DMSO solution was diluted with running buffer to a final concentration of […] peptide-nucleic acid conjugate solution, and 100 nM, 50 nM, 25 nM, 10 nM, 5 nM peptide-nucleic acid conjugate solutions were prepared. Using the aforementioned samples, the kinetics of the peptide against hTfR was obtained by SPR measurement.
The kinetics evaluation model was Single Cycle Kinetics, and curve fitting was performed using Biacore T200 Evaluation Software Version 3.0 (Global Life Science Technologies Japan Co., Ltd.).

T1 sequence (P02786 89-760 limits assumed): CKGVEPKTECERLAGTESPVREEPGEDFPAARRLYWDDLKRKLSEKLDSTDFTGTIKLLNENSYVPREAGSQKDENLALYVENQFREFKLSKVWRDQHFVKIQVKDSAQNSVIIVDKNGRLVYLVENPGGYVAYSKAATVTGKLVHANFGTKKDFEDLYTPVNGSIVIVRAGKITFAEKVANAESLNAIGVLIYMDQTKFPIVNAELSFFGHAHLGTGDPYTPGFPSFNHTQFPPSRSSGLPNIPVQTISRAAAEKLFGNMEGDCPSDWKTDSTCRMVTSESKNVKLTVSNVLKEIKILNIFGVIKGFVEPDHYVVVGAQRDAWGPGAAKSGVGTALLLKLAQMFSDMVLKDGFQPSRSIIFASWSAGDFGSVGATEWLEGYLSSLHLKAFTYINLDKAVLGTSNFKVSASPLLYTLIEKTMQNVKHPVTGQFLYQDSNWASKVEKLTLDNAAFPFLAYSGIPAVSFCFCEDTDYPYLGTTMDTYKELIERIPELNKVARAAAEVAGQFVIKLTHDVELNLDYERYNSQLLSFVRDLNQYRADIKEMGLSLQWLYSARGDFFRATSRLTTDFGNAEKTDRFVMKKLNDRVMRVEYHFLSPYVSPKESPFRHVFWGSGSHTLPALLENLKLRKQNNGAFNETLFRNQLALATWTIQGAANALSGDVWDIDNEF

B1: peptide-HDO conjugate of Example 35 (first nucleic acid strand A2, second nucleic acid strand C27) (peptide)
peptide: AVFVWNYYIIRRYYC
modifications: MeF at 3, MeY at 14 (N-methyl); thioether ring from N-terminal chloroacetyl-Ala to Cys 15; C-terminal Gly-KN3-NH2, azide joined to BCN on the oligonucleotide
notes: also called A2/C27
  Kd: < 100 nM

B2: peptide-HDO conjugate of Example 14 (first nucleic acid strand A2, second nucleic acid strand C4) (peptide)
peptide: AVFVWNYYIIRRYYC
modifications: MeF at 3, MeY at 14 (N-methyl); thioether ring from N-terminal chloroacetyl-Ala to Cys 15; C-terminal Gly-KN3-NH2, azide joined to BCN on the oligonucleotide
notes: also called A2/C4
  Kd: < 100 nM

B3: peptide-HDO conjugate of Example 26 (first nucleic acid strand A1, second nucleic acid strand C26) (peptide)
peptide: AVFVWNYYIIRRYYC
modifications: MeF at 3, MeY at 14 (N-methyl); thioether ring from N-terminal chloroacetyl-Ala to Cys 15; C-terminal Gly-KN3-NH2, azide joined to BCN on the oligonucleotide
notes: also called A1/C26
  Kd: < 100 nM

B4: peptide-HDO conjugate of Example 23 (first nucleic acid strand A2, second nucleic acid strand C18) (peptide)
peptide: AVFVWNYYIIRRYYC
modifications: MeF at 3, MeY at 14 (N-methyl); thioether ring from N-terminal chloroacetyl-Ala to Cys 15; C-terminal Gly-KN3-NH2, azide joined to BCN on the oligonucleotide
notes: also called A2/C18
  Kd: < 100 nM

B5: peptide-HDO conjugate of Example 53 (first nucleic acid strand A2, second nucleic acid strand C50) (peptide)
peptide: AVFVWNYYIIRRYYC
modifications: MeF at 3, MeY at 14 (N-methyl); thioether ring from N-terminal chloroacetyl-Ala to Cys 15; C-terminal Gly-PEG12c-KN3-NH2, azide joined to BCN on the oligonucleotide
notes: also called A2/C50
  Kd: < 100 nM

B6: Y14-PMO conjugate of Example 61 (peptide)
peptide: AVFVWNYYIIRRYYC
chain: KKKG
modifications: not fully specified; N-terminal 4-pentynoyl-AEEA; ivDde groups on the three Lys removed with hydrazine; C-terminal Gly coupled to PMO A4; MeF at 3, MeY at 14 (N-methyl); thioether ring from N-terminal chloroacetyl-Ala to Cys 15; C-terminal Gly-KN3-NH2, azide joined by copper-catalysed click to the 4-pentynoyl group of the linker …
  Kd: < 100 nM

B7: peptide-HDO conjugate of Example 19 (first nucleic acid strand A1, second nucleic acid strand C19) (peptide)
peptide: AVFVWNYYIIRRYYC
modifications: MeF at 3, MeY at 14 (N-methyl); thioether ring from N-terminal chloroacetyl-Ala to Cys 15; C-terminal Gly-KN3-NH2, azide joined to BCN on the oligonucleotide
notes: also called A1/C19
  Kd: < 100 nM

B8: peptide-HDO conjugate of Example 4 (first nucleic acid strand A1, second nucleic acid strand C4) (peptide)
peptide: AVFVWNYYIIRRYYC
modifications: MeF at 3, MeY at 14 (N-methyl); thioether ring from N-terminal chloroacetyl-Ala to Cys 15; C-terminal Gly-KN3-NH2, azide joined to BCN on the oligonucleotide
notes: also called A1/C4
  Kd: < 100 nM

B9: peptide-HDO conjugate of Example 6 (first nucleic acid strand A1, second nucleic acid strand C6) (peptide)
peptide: AVFVWNYYIIRRYYC
modifications: MeF at 3, MeY at 14 (N-methyl); thioether ring from N-terminal chloroacetyl-Ala to Cys 15; C-terminal Gly-KN3-NH2, azide joined to BCN on the oligonucleotide
notes: also called A1/C6
  Kd: < 100 nM

B10: peptide-HDO conjugate of Example 16 (first nucleic acid strand A2, second nucleic acid strand C16) (peptide)
peptide: AVFVWNYYIIRRYYC
modifications: MeF at 3, MeY at 14 (N-methyl); thioether ring from N-terminal chloroacetyl-Ala to Cys 15; C-terminal Gly-KN3-NH2, azide joined to BCN on the oligonucleotide
notes: also called A2/C16
  Kd: < 100 nM

B11: peptide-HDO conjugate of Example 46 (first nucleic acid strand A2, second nucleic acid strand C44) (peptide)
peptide: AVFVWNYYIIRRYYC
modifications: MeF at 3, MeY at 14 (N-methyl); thioether ring from N-terminal chloroacetyl-Ala to Cys 15; C-terminal Gly-KN3-NH2, azide joined to BCN on the oligonucleotide
notes: also called A2/C44
  Kd: < 100 nM

B12: peptide-HDO conjugate of Example 10 (first nucleic acid strand A2, second nucleic acid strand C10) (peptide)
peptide: AVFVWNYYIIRRYYC
modifications: MeF at 3, MeY at 14 (N-methyl); thioether ring from N-terminal chloroacetyl-Ala to Cys 15; C-terminal Gly-KN3-NH2, azide joined to BCN on the oligonucleotide
notes: also called A2/C10
  Kd: < 100 nM

B13: peptide-HDO conjugate of Example 38 (first nucleic acid strand A2, second nucleic acid strand C30) (peptide)
peptide: AVFVWNYYIIRRYYC
modifications: MeF at 3, MeY at 14 (N-methyl); thioether ring from N-terminal chloroacetyl-Ala to Cys 15; C-terminal Gly-KN3-NH2, azide joined to BCN on the oligonucleotide
notes: also called A2/C30
  Kd: < 100 nM

B14: peptide-HDO conjugate of Example 47 (first nucleic acid strand A1, second nucleic acid strand C47) (peptide)
peptide: AVFVWNYYIIRRYYC
modifications: MeF at 3, MeY at 14 (N-methyl); thioether ring from N-terminal chloroacetyl-Ala to Cys 15; C-terminal Gly-KN3-NH2, azide joined to BCN on the oligonucleotide
notes: also called A1/C47
  Kd: < 100 nM

B15: peptide-HDO conjugate of Example 44 (first nucleic acid strand A1, second nucleic acid strand C44) (peptide)
peptide: AVFVWNYYIIRRYYC
modifications: MeF at 3, MeY at 14 (N-methyl); thioether ring from N-terminal chloroacetyl-Ala to Cys 15; C-terminal Gly-KN3-NH2, azide joined to BCN on the oligonucleotide
notes: also called A1/C44
  Kd: < 100 nM

B16: peptide-HDO conjugate of Example 48 (first nucleic acid strand A2, second nucleic acid strand C47) (peptide)
peptide: AVFVWNYYIIRRYYC
modifications: MeF at 3, MeY at 14 (N-methyl); thioether ring from N-terminal chloroacetyl-Ala to Cys 15; C-terminal Gly-KN3-NH2, azide joined to BCN on the oligonucleotide
notes: also called A2/C47
  Kd: < 100 nM

B17: peptide-HDO conjugate of Example 43 (first nucleic acid strand A2, second nucleic acid strand C42) (peptide)
peptide: AVFVWNYYIIRRYYC
modifications: MeF at 3, MeY at 14 (N-methyl); thioether ring from N-terminal chloroacetyl-Ala to Cys 15; C-terminal Gly-KN3-NH2, azide joined to BCN on the oligonucleotide
notes: also called A2/C42
  Kd: < 100 nM

B18: peptide-HDO conjugate of Example 34 (first nucleic acid strand A2, second nucleic acid strand C26) (peptide)
peptide: AVFVWNYYIIRRYYC
modifications: MeF at 3, MeY at 14 (N-methyl); thioether ring from N-terminal chloroacetyl-Ala to Cys 15; C-terminal Gly-KN3-NH2, azide joined to BCN on the oligonucleotide
notes: also called A2/C26
  Kd: < 100 nM

B19: peptide-HDO conjugate of Example 40 (first nucleic acid strand A2, second nucleic acid strand C32) (peptide)
peptide: AVFVWNYYIIRRYYC
modifications: MeF at 3, MeY at 14 (N-methyl); thioether ring from N-terminal chloroacetyl-Ala to Cys 15; C-terminal Gly-KN3-NH2, azide joined to BCN on the oligonucleotide
notes: also called A2/C32
  Kd: < 100 nM

B20: peptide-HDO conjugate of Example 7 (first nucleic acid strand A1, second nucleic acid strand C7) (peptide)
peptide: AVFVWNYYIIRRYYC
modifications: MeF at 3, MeY at 14 (N-methyl); thioether ring from N-terminal chloroacetyl-Ala to Cys 15; C-terminal Gly-KN3-NH2, azide joined to BCN on the oligonucleotide
notes: also called A1/C7
  Kd: < 100 nM

B21: Y6-HDO conjugate of Example 1 (compound A1 annealed with compound C1) (peptide)
peptide: AVFVWNYYIIRRYYC
modifications: MeF at 3, MeY at 14 (N-methyl); thioether ring from N-terminal chloroacetyl-Ala to Cys 15; C-terminal Gly-KN3-NH2, azide joined to BCN on the oligonucleotide
notes: also called A1/C1
  Kd: < 100 nM

B22: peptide-HDO conjugate of Example 33 (first nucleic acid strand A1, second nucleic acid strand C33) (peptide)
peptide: AVFVWNYYIIRRYYC
modifications: MeF at 3, MeY at 14 (N-methyl); thioether ring from N-terminal chloroacetyl-Ala to Cys 15; C-terminal Gly-KN3-NH2, azide joined to BCN on the oligonucleotide
notes: also called A1/C33
  Kd: < 100 nM

B23: peptide-HDO conjugate of Example 37 (first nucleic acid strand A2, second nucleic acid strand C29) (peptide)
peptide: AVFVWNYYIIRRYYC
modifications: MeF at 3, MeY at 14 (N-methyl); thioether ring from N-terminal chloroacetyl-Ala to Cys 15; C-terminal Gly-KN3-NH2, azide joined to BCN on the oligonucleotide
notes: also called A2/C29
  Kd: < 100 nM

B24: peptide-HDO conjugate of Example 9 (first nucleic acid strand A1, second nucleic acid strand C9) (peptide)
peptide: AVFVWNYYIIRRYYC
modifications: not fully specified; MeF at 3, MeY at 14 (N-methyl); thioether ring from N-terminal chloroacetyl-Ala to Cys 15; C-terminal Gly-KN3-NH2, azide joined to BCN on the oligonucleotide
notes: also called A1/C9
  Kd: < 100 nM

B25: Y10-PMO conjugate of Example 57 (peptide)
peptide: AVFVWNYYIIRRYYC
chain: RRRA
modifications: not fully specified; N-terminal BCN-AEEA; C-terminal beta-Ala coupled to the 3' end of PMO A1; MeF at 3, MeY at 14 (N-methyl); thioether ring from N-terminal chloroacetyl-Ala to Cys 15; C-terminal Gly-KN3-NH2, azide joined to BCN of the linker peptide
  Kd: < 100 nM

B26: Y13-PMO conjugate of Example 60 (peptide)
peptide: AVFVWNYYIIRRYYC
chain: RRRG
modifications: not fully specified; N-terminal 4-pentynoyl-AEEA; C-terminal Gly coupled to PMO A4; MeF at 3, MeY at 14 (N-methyl); thioether ring from N-terminal chloroacetyl-Ala to Cys 15; C-terminal Gly-KN3-NH2, azide joined by copper-catalysed click to the 4-pentynoyl group of the linker …
  Kd: < 100 nM

B27: peptide-HDO conjugate of Example 49 (first nucleic acid strand A1, second nucleic acid strand C49) (peptide)
peptide: AVFVWNYYIIRRYYC
modifications: MeF at 3, MeY at 14 (N-methyl); thioether ring from N-terminal chloroacetyl-Ala to Cys 15; C-terminal Gly-PEG4c-KN3-NH2, azide joined to BCN on the oligonucleotide
notes: also called A1/C49
  Kd: < 100 nM
